B1: TPR t1 (parent)
chain: GACCAAUCUGCCCUCAGAGCUCGAGAACAUCUUCGGAUGCAGAGGAGGCAGGCUUCGGUGGCGCGAUAGCGCCAACGUCCUCAACCUCCAAUGCAUCCCACCACAUGAUGAUGCCUGAAGAGCCUUGGUUUUUUG

Variants of: B1
Test: polymerase ribozyme fitness, log enrichment relative to wild type (log ratio); higher = more active; in vitro selection for triplet polymerase activity
How it was run: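 After PCR construction and transcription, each subunit's mutant library from a heterodimeric triplet polymerase ribozyme was annealed with a biotinylated primer, the partner subunit and triplets. Incubation was frozen, at −7 °C, and extended constructs were gel-excised, bound to streptavidin beads and amplified by RT-PCR, in one selection round done in triplicate. Fitness is the logarithm of a genotype's enrichment divided by that of the wild type, from inverse-variance-weighted replicate averages of Illumina-sequenced inputs and outputs. The base of the logarithm is 2, and genotypes needed ≥10 input reads and ≥1 read per output.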

In order of falling “polymerase ribozyme fitness (log ratio)” value:
1. C73U A90G C124A  1.85
2. C40U A121U  1.68
3. C72A A121G  1.6
4. A83G G120U C124A G135A  0.857
5. C53A G61A U78G  0.644
6. A111G  0.509
7. C73A A118G  0.164
8. G61A U106C  0.151
9. C13G C40A C123U  -0.0334
10. C11U C12U A111C G122A  -0.0374
11. C12U U55G U59C U133A  -0.128
12. C86U A119U  -0.189
13. G58C C76G G77U  -0.291
14. A37U C88U  -0.319
15. C49A C56A C64U U130C  -0.336
16. C53A C56U U106C  -0.479
17. C3U U32C C101U G120C  -0.584
18. C40G A50U  -0.606
19. A100U U133A  -0.657
20. C89U U126C  -1.11
21. C13U C79A C115A G127C  -1.14
22. A6C G71C  -1.18
23. C3U C13G A111C  -1.32
24. A46C G47A C53A U78C  -1.4
25. C53G C115G  -1.44
26. C20U G39A C56A G69U C94G  -1.55
27. C13G C56U  -1.58
28. A75C G77C  -1.58
29. A6G G44C C49G  -1.68
30. C88G C89A  -1.75
31. A16U G17C C114U  -1.76
32. G71A A100U  -1.77
33. C70G G120C  -1.8
34. A37C C70A  -1.82
35. U32C G60C A75C C79G A118U  -1.88
36. U54G G117A  -2
37. U9G C11A C70A U87A  -2.04
38. G60A C94A  -2.04
39. C20U U106C  -2.1
40. A50U G77A C97U U106C  -2.11
41. A29G A91G G113A  -2.3
42. A50U G51A U87G U106A  -2.51
43. G93U C102A G120A  -2.52
44. C4A C72U U130A  -2.53
45. G71A C101A  -2.55
46. C86A G110U  -2.79
47. G57A G63U G122A  -2.81
48. C70G U125A  -2.85
49. G19U C64U  -2.87
50. G69U C70G U92C G122A U125A  -3.32
51. A37G C62A G93U A121G  -3.43
52. A43U G110U  -3.52
53. C8U U78A G93U C101G C104A C124U  -3.7
54. A46G C53U C89U G128A  -3.9
55. A5U U59A U92A U129G  -3.92
56. G17C A18C  -4.12
57. G45C C53G U81A A91C  -4.15
58. C34U C88U  -4.26
59. G10C C15G G69C  -4.46
60. C82U A108U A121G  -4.59
61. U21A C56G U78A C85A U109G  -4.63
62. C94A C102U  -4.66
63. A18C C53A C62U C72U C85G G122U  -4.78
64. U7G C8U C53A U59C C80U  -4.87
65. C20G U125G  -4.91
66. G61A A103U  -4.95
67. C70U C102G A121G  -5.14
68. C88G C97A C104U  -5.23
69. C22A G60C  -5.44
70. G36U U81C G107C  -5.8
71. G48A C70A C86G G107C G110U  -5.84
72. C34A G63C A100C C104A  -6.04
73. G10A C12G U21C U106G C114G U116A  -6.06
74. C15U C20A U81G U112G  -6.15
75. G58C U67C A100U G120C  -6.28
76. G93U C101A G113U G117A  -6.98
77. A2C C12G A46C C72U G113U  -7.24
78. G44C U54A A105G G117U U129A U133A  -7.26
79. A24U G61C  -7.27
80. C34G U67C A103G G107C U116C C123G  -7.28
81. U7A C56A G65C G71A  -7.51
82. C11G G25C G39A C56A C72G C82A A111C  -7.55
83. G51U C62A G110C  -8.04

From the RNAGym collection of RNA variant scans (doi:10.1073/pnas.2313332121)
